According to publication doi:10.1101/2023.08.11.553045 (bioRxiv, 2023):
Where no end group is shown, it is not given here.

B1: STING cytosolic domain (hSTING CTD lacking CTT3, aa 137-366) (domain or fragment)
chain: KGLAPAEISAVCEKGNFNVAHGLAWSYYIGYLRLILPELQARIRTYNQHYNNLLRGAVSQRLYILLPLDCGVPDNLSMADPNIRFLDKLPQQTGDHAGIKDRVYSNSIYELLENGQRAGTCVLEYATPLQTLFAMSQYSQAGFSREDRLEQAKLFCRTLEDILADAPESQNNCRLIAYQEPADDSSFSLSQEVLRHLRQEEKEEVTVGSLKTSAVPSTSTMSQEPELLIS

What was measured:
[1] = target: STING cytosolic domain (hSTING CTD lacking CTT3, aa 137-366) (human) (UniProt Q86WV6); assay: MST
[2] = target: the molecule itself; assay: SEC
[3] = target: B1; assay: NMR titration
[4] = target: STING-R284S CTD (human, UniProt Q86WV6 137-366, R284S); assay: NMR titration
[5] = target: B1; assay: MST

Molecule: CTT8 peptide (MFEKPLPL)
- fold enhancement of affinity over CTT7 [1]: 2.7 fold

Molecule: B1
- binding result [2]: binds

Molecule: MEKPLPL (also: 15N isotopically labelled amino acids) [15N-labelled CTT7]
- binding result [3]: binds
- binding result [4]: binds

Molecule: MEKPLPL [CTT7 peptide (unlabelled)]
- Kd [5]: 10.7 µM
